From the nanobody polyreactivity screen of Harvey et al. (2022)

test: yeast display, Sf9 membrane polyspecificity reagent, FACS + sequencing; frameworks hold sequencing errors
Procedure, shortened: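 Galactose-induced (36–48 hours) yeast carrying a synthetic nanobody display library were exposed to 10% biotinylated, detergent-solubilized Sf9 membrane reagent at 4 °C for 1 hour. FACS followed streptavidin microbead enrichment, using low and high (top ~1%) gates for expression (anti-HA) and reagent binding (streptavidin). Colony PCR, MiSeq 2 × 250 sequencing and CDR-length filtering followed. Labels for polyreactivity reflect the gate of origin.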

Sequence	polyreactivity (PSR sort gate)
QVQLVESGGGLVQAGGSLRLSCAACGSIFIGNAMGWYRQAPGKERELVAVISKGGGRTYYADSVKGRFTISRDNAKNTVYLKMNSLKPEDTAVYFCNTRNPESGDYWGQGTQVTVSS	high polyreactivity
QVQLVESGGGLVQAGGSLRLSCAASGSIFEGYAMGWYRQAPGKERELVAVITTSGGDTYYADSVKGRFTISRDNAKNTVYLQMNSLKPEDTAVYYCNAADAVSDYPDFHIYDYWGQGTQVTVSS	low polyreactivity
QDQLVESGGFLVQAGGSLRLSCAASGRTFSYYDMGWYRQAPGKERELVAAISSGGSTNYADSVKARFTISRENAKNTFYLQMNSLKPEDTGVSYCATSCIWGYGRVRWVTYYYWGQGTQVTVSS	low polyreactivity
QVQLVESVGGLVQAGGSLRLSCAASGSILRRYAMGWYRRAPWKERELVAAIDGGGGTTYYADSVKGRFTISRDYAKKTVYLQMNSLKPEDNAVYYCAADASWELIAWAHYDYWGQGTQVSVSS	low polyreactivity
QVQLVESGGGLVQAGGSLRLSCAASGLIIAHYAMGWYRQAPVKERELVAAITSGSSTYYADSVKGRFTISRDNAKNNVYLQMNSLKPEDTAVYYCAAKETHSAYRSSGNYWGQGTQVTVSS	low polyreactivity
QVQLVESGGGLVQAGGSLRLSCAASGSIFAPYAMGWYRQAPGKERELVAAISSSGGSTYYADSVKGRFTISRDNAKNTLYLQMNSLKPEDTAVYYCAAETYHGLYDYWGQGTQVTVSS	low polyreactivity
QVQLVESGGGLVQAGGSLRLSCAASGGIFGSYAMGWYRQAPGKERELVAAISGGSTYYADSVKGRFTISRDNAKNTVYLQMTSLKPEDTAVYYCAAGWSVWYQDFDYWGQGTQVTVSS	high polyreactivity
QDQLVESGGGLVQAGGSLRLSCAASGIIFYDYAMGWYRQAPGKERELVAAITSNGDNTYYADSVKGRFTISRDNAKNTVYLQMNSLKPEDTAGYYCAVDGSFAADFDNYLEEYGYWGQGTQVTVSS	low polyreactivity
QVQLVDSGGGLVQAGGSLRLICAASGSIFGKNAMGWYRQAPGKERELVAAISKRGGTTYYADSVKGRFTISRDNAKNTFYLLMNSLKPEDTAVYYCAAYYYVHRSSHYLSPYDFWGQVTQVTVSS	high polyreactivity
QVQLVESGGGLDQAGGSLRLSCAAYGVPSLTMNMGWYRQAPGKERELFATIYSGGSTYYADSVKWRFTISRDNAKNTVYLQMNRLKPEDTAVYYCAARQSYYYSRSYIRGDYWGQGTQVTVSS	high polyreactivity
QVQLVESGGGLVQAGGSLRLSCAASGSTIEDNTMGWYRQAPGKERELVAAISNSGGSTYYADSVKGRFTISRDYAKNTVYLQMISLKPEDTAVYYCAADFYDPFDYWGQGTQVTVSS	low polyreactivity
QVQLVESVVGLVQAGGSLRLSCAASGRIFAYYAMGWYRQAPGKERELVAAISSSGGGTYYADSVKGRFTISRDNAKNTVYLQMNSLKPEDTAVYYCAKRVRRKYSVSHPYDYWGQGTQVTVSS	high polyreactivity
QVQLVESGGGLVQAGGSLRLSCAASGRTFGSYAMGWNRPATRLERELVAAISDGGSTNYADSVKGRFTISRDNAKITVYLQMNSLTPEDTAVYYCAAEIFFAVFRFYYSGQGTQVTVSS	low polyreactivity
QVQLVESGGGLLQAGGSLRLSCAASVRIFYGYAMGWYRQAPGKERELVAAIDSVGDKYYADSVKGRFTISRDNAKNTVYLQMNSLNPEDTAVYSCAADRTGRIVLSPTDEMDYWGQGTQVSVSS	low polyreactivity
QVQLVESGGGLVQAGGSLRLSCAASGITFGVYALGWSRQARGNERELVAAISVNGGSTYYADSVKGRYTISRDNAKNTVYLQMNSLKPEDTAVYYCAADVLYYIDDDSIIEYDYWGQGTQVTVSS	low polyreactivity
QVQLVESGGGFVQAGGSLRLSCAASGSIFYLYAMGWYRQAPGKERELVAAITSIGGSTYADSVKGRFTISRDNAKYTVYLQMNSLKPEDTAVYYCATYVAYHRGYRTYDQWGQGTQVTVSS	low polyreactivity

Sequence	polyreactivity (PSR sort gate)
QVQLVESGGGLVQAGGSLRLSCAASGRIFAYYPMGWYRPAPGKERELVAAISRSGVSTYYADSVKGRFTISRDNAKNTVYLQMNSLKPEDTAVYYCAARWRSGFTSGDYWGQGTQVTVSS	low polyreactivity
QVQLVESGGGLVQAGGSLRLSCAASGFIFSSYAMGWYRQAPGKEREFVASISASGGTTYYADSVKGRFTISRDNAKNTVYLQMNSLKPEDTAVYYCAAPWLDAEDYWGQGTQVTVSS	high polyreactivity
QFQLVESGGGLVQAGGSLRLSSAASGFTFIRYAMGWYRPAPGKERELVAAITVSGTRTYYADSVKGRFTISRDNAKNTVYLQMNSLKPEDTAVYYCNARDVYTGYGMGYWGQGTQVTVSS	high polyreactivity
QVQLVESGGGLVQAGGSLRLSCAASGSIFKWYAMGWYRQAPGKERELVAVISSGGNTYYADSVKGRFTISRDNAKNTVYLQMNSLKPEDTAVYYCAARVTSHMYYWGQGTQVTVSS	high polyreactivity
QVQLLESGGGLVQAGGSLRLSCAAYGSTFGYNDMGWYRQAPGKVRELVAAITRRSGSTYYADSVKGRFTISRDNAKNSVNLQMNSLKPEDTAVYYCAASYHYGDRWPIRMDYWGQGTQVTVSS	low polyreactivity
QVQLVESGGGLVQAGGSLRLSCAASGSIFYRNAMGWYRQAPGKERELVAAISRSGGSTYYADSVKGRFTISRDNAKNTVYLQMNSLKPEDTAVYYCAKARPLGGTPSNGFDYWGQGTQVTVSS	high polyreactivity
QVHLVESGGGLVQAGGSLRLSCAASGRIFGPYTMGWYIQAPGKEREFVAAITRRGGSTYYADSVKGRFTISRDNAKNTVYLQMNSLKPEDTAVYSCAAGGQKRSLGYSWGQGTQVTVSS	low polyreactivity
QVQLVESGGGLVQAGGSLRLSCAASGRIFSYNAMGWYRQAPGKERELVAASTFSGGGTYYADSVKGRYTISRDNAKNPVYLQMNSLKPEDTAVYYCNNLSYGYSTYGYWGQGTQVTVSS	low polyreactivity
QVQLVESGGGLVQAGGSLRLSCAASGSTFTLYAMGWSRPAPGKERELVATISWNGGRTYYADSVKGRFTISRDNAKNTVYLQMNSLKPEDTAVYYCAADTYDADYDYWGQGTQVTVSS	high polyreactivity
QVQLVESGGGLVQAGGSLRLSCAASGIIIDRYAMGWYRQAPGKERELVAAISWSGGRTYYADSVKGRFTISRDNAKNTVYLQMNSLKPEDTAVYYCAAKPSVDLDYWGQGTQVTVSS	high polyreactivity
QVQLEESGGGLVQAGGSLRLTCAASGFTFGYYTMGWYRQAPGQERELVAAISSGGSTNYADSVKGRFTISRDNAKNTVYLEMNSLKPEDTAVYYCTATQIGPYYLPFDSWGQGTQVTVSS	high polyreactivity
QVHLVESGGGLVQAGGSLRLSCAASGRTFRLYAMAWSRQAPGKERELVARISRGGSTYYADSVKGRFTISRDNAKNTVYLLMNSLKREDTAVYYCAAEGWGLSHRYDYWGQGTQVTVSS	high polyreactivity
QVQLVESGGGLVKAGGSLRISCAASGFTFVSYSKGWYRQAPGKERELVADISSGVSTNYADSVKGRFTISRDNAKNTVYLQMNSLNPEDTAVYYCAAYGTKWGRGFYITGYGYWGQGTQVTVSS	low polyreactivity
QVQLVESGGGLVQAGGSIRLSCDASGNTFCTYAMGWYRQAPGKERELVATSAKRAGSTYYADSVKGRFTISRDNAKNTVFLQLKCLKPEDTAFYDCARDAYSVYYYVFLHWEYDYWGQVTQVTVSS	high polyreactivity
QVQLVESGGGLVQAGGSLRLSWAASGSTFQSYAMGLSRQAPGKERELVAAISFSGGSTYYADSVKGRFTISRDNAKNTVYLQMHSLKPEDTAVYYCAADVAYVEYDYWGQGTQVTVSS	low polyreactivity
QVQHVESGGGLVQAGGSLRLSCAASGSIFNRNAMGWYRQAPGKERELVAAITRRGGSTYYADSVKVRFTISRDNAMNTVYLQMNSLKPEDTAVYYCAAATRKTEYDYWGQGSQVTVSS	high polyreactivity
